The results in this text go back to the supplement of paper PMC7877785.

± gives the uncertainty stated by the source.

The nature of this series: self-splicing fitness, log relative to wild type (ln ratio); higher = more splicing; Tetrahymena group I intron in knt gene, E. coli kanamycin selection, DiMSum; sequences stand for … in CUCUCU…GGAGGGAAAAGUUAUCAGGCAUGCACCUGGUAGCUAGUCUUUAAACCAAUAGAUUGCAUCGGUUUAAAAGGCAAGACCGUCAAAUUGCGGGAAAGGGGUCAACAGCCGUUCAGUACCAAGUCUCAGGGGAAACUUUGAGAUGGCCUUGCAAAGGGUAUGGUAAUAAGCUGACGGACAUGGUCCUAACCACGCAGCCAAGUCCUAAGUCAACAGAUCUUCUGUUGAUAUGGAUGCAGUUCACAGACUAAAUGUCGGUCGGGGAAGAUGUAUUCUUCUCAUAAGAUAUAGUCGGACCUCUCCUUAAUGGGAGCUAGCGGAUGAAGUGAUGCAACACUGGAGCCGCUGGGAACUAAUUUGUAUGCGAAAGUAUAUUGAUUAGUUUUGGAGUACUCGUGGUCG
An outline of the steps:
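A randomised library covering all eight P1ex-region intron nucleotides was built with the intron in the knt kanamycin-resistance gene on pET-22b(+) and held in E. coli BL21(DE3). Cells were grown overnight at 37°C or 30°C on LB agar, with or without 25 μg/mL kanamycin, plus 100 μg/mL carbenicillin, 50 μM IPTG and 0.2% rhamnose, and pooled colonies were amplicon-sequenced on an Illumina HiSeq 2500. DiMSum fitness is the error-weighted combination of wild-type-normalised replicate fold changes, kanamycin versus none.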

In the case of UGUUAGCAAUAUUACGUAAA, the “self-splicing fitness (ln)” value (30 °C) was -0.887 ± 0.14 and the “self-splicing fitness (ln)” value (37 °C) was 0.19 ± 0.21. As for GGAAAGCAAUAUUACGGUGU, the “self-splicing fitness (ln)” value is -2.29 ± 0.092 (30 °C) and -1.15 ± 0.12 (37 °C). Regarding GGCAAGCAAUAUUACGACAU, the “self-splicing fitness (ln)” value (30 °C) was -0.288 ± 0.012 and the “self-splicing fitness (ln)” value (37 °C) was 0.141 ± 0.032. On to CGGCAGCAAUAUUACGCAGU, for which the “self-splicing fitness (ln)” value was -3.02 ± 0.17 (30 °C) and -2.07 ± 0.29 (37 °C). The matching figures for CGGAAGCAAUAUUACGAAAG: -0.838 ± 0.12 and -0.911 ± 0.19. The matching figures for GACUAGCAAUAUUACGCAUC: -3.16 ± 0.17 and -2.95 ± 0.22. CUGAAGCAAUAUUACGGUGG: the “self-splicing fitness (ln)” value by setting is: (30 °C) -1.02 ± 0.065; (37 °C) -0.466 ± 0.094. In the same order, the values of CAGGAGCAAUAUUACGUUGA are -3.22 ± 0.37 and -3.85 ± 0.42. The matching figures for GAUUAGCAAUAUUACGGCUC: 0.285 ± 0.096 and 0.441 ± 0.12. Consider ACUAAGCAAUAUUACGCCAA, for which the “self-splicing fitness (ln)” value (30 °C) was -2.24 ± 0.12 and the “self-splicing fitness (ln)” value (37 °C) is -2.26 ± 0.16. Take GUACAGCAAUAUUACGUAAC: the “self-splicing fitness (ln)” value was -2.18 ± 0.14 (30 °C) and -1.11 ± 0.12 (37 °C).

As for AAUCAGCAAUAUUACGCACA, the “self-splicing fitness (ln)” value by setting is: (30 °C) -0.245 ± 0.063; (37 °C) 0.0601 ± 0.085.

Turning to GCUCAGCAAUAUUACGCGGC, the “self-splicing fitness (ln)” value reads like this: (30 °C) -3.83 ± 0.47; (37 °C) -1.46 ± 0.26.

GACGAGCAAUAUUACGAACC: the “self-splicing fitness (ln)” value (30 °C) was -3.09 ± 0.18 and the “self-splicing fitness (ln)” value (37 °C) was -0.495 ± 0.13. Take CCCGAGCAAUAUUACGCGUA: the “self-splicing fitness (ln)” value was -3.06 ± 0.21 (30 °C) and -2.05 ± 0.21 (37 °C). On to GACCAGCAAUAUUACGCCAC, for which the “self-splicing fitness (ln)” value (37 °C) is -2.73 ± 0.46. For the sequence CCGAAGCAAUAUUACGACAG, the “self-splicing fitness (ln)” value was -0.797 ± 0.098 (30 °C) and -0.282 ± 0.12 (37 °C). The matching figures for CGCAAGCAAUAUUACGGUCA: -0.699 ± 0.067 and 0.0685 ± 0.079.

Take CCUAAGCAAUAUUACGUGAC: the “self-splicing fitness (ln)” value (30 °C) is -4.32 ± 0.3. For CUCGAGCAAUAUUACGUCGA, the “self-splicing fitness (ln)” value is -3.29 ± 0.28 (30 °C) and -1.67 ± 0.24 (37 °C).

Turning to CACGAGCAAUAUUACGCCGG, the “self-splicing fitness (ln)” value by setting is: (30 °C) -3.41 ± 0.22; (37 °C) -2.6 ± 0.3. Turning to UUUAAGCAAUAUUACGGCGU, the “self-splicing fitness (ln)” value was -1.29 ± 0.27 (30 °C) and -0.169 ± 0.34 (37 °C). For the sequence GCGUAGCAAUAUUACGUUCC, where the note is “37 °C”, the “self-splicing fitness (ln)” value was -2.36 ± 0.49. As for UUUUAGCAAUAUUACGUCUA, the “self-splicing fitness (ln)” value was -0.819 ± 0.23 (30 °C) and -0.292 ± 0.2 (37 °C). With ACGCAGCAAUAUUACGACUA, the “self-splicing fitness (ln)” value is -1.15 ± 0.072 (30 °C) and -0.183 ± 0.064 (37 °C).

As for CAUGAGCAAUAUUACGUACG, the “self-splicing fitness (ln)” value runs as follows: (30 °C) -0.969 ± 0.074; (37 °C) 0.257 ± 0.1. In the case of ACGGAGCAAUAUUACGACCG, the “self-splicing fitness (ln)” value reads like this: (30 °C) -2.1 ± 0.17; (37 °C) -1.78 ± 0.25. In the same order, the values of CAUGAGCAAUAUUACGGCCG are -1.25 ± 0.12 and -0.62 ± 0.16. For UCGUAGCAAUAUUACGAGAU, the “self-splicing fitness (ln)” value is -4.2 ± 0.42 (30 °C) and -2.6 ± 0.39 (37 °C). The matching figures for AAAAAGCAAUAUUACGAUUC: -0.58 ± 0.091 and -0.42 ± 0.12. The matching figures for CCUAAGCAAUAUUACGAUGU: -2.84 ± 0.12 and -2.03 ± 0.15. In the same order, the values of UCUGAGCAAUAUUACGCCGU are -3.13 ± 0.48 and -1.56 ± 0.36.

Consider AGUAAGCAAUAUUACGAUGU, for which the “self-splicing fitness (ln)” value runs as follows: (30 °C) -3.05 ± 0.15; (37 °C) -1.17 ± 0.13. In the same order, the values of AACGAGCAAUAUUACGUCAG are -3.08 ± 0.29 and -2.97 ± 0.34.
